B1: Homeodomain-interacting protein kinase 2 (Mus musculus), Q9QZR5 (parent)
chain: MAPVYEGMASHVQVFSPHTLQSSAFCSVKKLKVEPSSNWDMTGYGSHSKVYSQSKNIPPSQPASTTVSTSLPIPNPSLPYEQTIIFPGSTGHIVVTSASSTSVTGQVLGGPHNLMRRSTVSLLDTYQKCGLKRKSEEIENTSSVQIIEEHPPMIQNNASGATVATATTSTATSKNSGSNSEGDYQLVQHEVLCSMTNTYEVLEFLGRGTFGQVVKCWKRGTNEIVAIKILKNHPSYARQGQIEVSILARLSTESADDYNFVRAYECFQHKNHTCLVFEMLEQNLYDFLKQNKFSPLPLKYIRPVLQQVATALMKLKSLGLIHADLKPENIMLVDPSRQPYRVKVIDFGSASHVSKAVCSTYLQSRYYRAPEIILGLPFCEAIDMWSLGCVIAELFLGWPLYPGASEYDQIRYISQTQGLPAEYLLSAGTKTTRFFNRDTDSPYPLWRLKTPDDHEAETGIKSKEARKYIFNCLDDMAQVNMTTDLEGSDMLVEKADRREFIDLLKKMLTIDADKRVTPIETLNHPFVTMTHLLDFPHSAHVKSCFQNMEICKRRVNMYDTVNQSKTPFITHVAPSTSTNLTMTFNNQLTTVHNQAPTTSSATLSLANPEVSILNYQSALYQPSAASMAAVAPRSMPLQTGTAQICARPDPFQQALIVCPPGFQGLQASPSKHAGYSVRMENAVPIVTQAPGAQPLQIQPGLLAQQAWPGGAQQILLPPAWQQLTGVATHTSVQHAAVIPETMAGTQQLADWRNTHAHGSHYNPIMQQPALLTGHVTLPAAQPLNVGVAHVMRQQPTSTTSSRKSKQHQSSVRNVSTCEVTSSQAISSPQRSKRVKENTPPRCAMVHSSPACSTSVTCGWGDVASSTTRERQRQTIVIPDTPSPTVSVITISSDTDEEEEQKHAPTSTVSKQRKNVISCVTVHDSPYSDSSSNTSPYSVQQRTGHNGTNTLDTKGGLENHCTGNPRTIIVPPLKTQASEVLVECDSLGPAISASHHSSSFKSKSSSTVTSTSGHSSGSSSGAIAYRQQRPGPHFQQQQPLNLSQAQQHMAADRTGSHRRQQAYITPTMAQAPYTFPHNSPSHGTVHPHLAAAAHLPTQPHLYTYTAPTALGSTGTVAHLVASQGSARHTVQHTAYPASIVHQVPVSMGPRVLPSPTIHPSQYPAQFAHQTYISASPASTVYTGYPLSPAKVNQYPYI
partner: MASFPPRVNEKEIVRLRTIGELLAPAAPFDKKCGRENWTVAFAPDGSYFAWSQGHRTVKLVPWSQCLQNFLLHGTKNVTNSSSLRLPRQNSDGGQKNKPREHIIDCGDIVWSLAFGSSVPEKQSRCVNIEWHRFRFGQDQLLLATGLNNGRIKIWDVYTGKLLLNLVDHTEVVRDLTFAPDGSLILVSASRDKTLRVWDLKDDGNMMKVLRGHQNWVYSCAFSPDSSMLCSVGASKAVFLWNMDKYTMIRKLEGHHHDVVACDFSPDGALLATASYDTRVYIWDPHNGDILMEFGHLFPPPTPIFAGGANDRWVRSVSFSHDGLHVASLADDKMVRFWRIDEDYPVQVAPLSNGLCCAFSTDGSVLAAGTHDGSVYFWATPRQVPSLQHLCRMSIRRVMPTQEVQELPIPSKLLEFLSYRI

Variants of: B1
Settings: with wsb1_human WSB1, Q9Y6I7

Row | effect of a mutation on the interaction | Variant
1 | increasing interaction | K228R

From IntAct's records for PubMed 18093972
